Laboratory results published in the nanobody polyreactivity screen of Harvey et al. (2022).

Assay: yeast display, Sf9 membrane polyspecificity reagent, FACS + sequencing; frameworks hold sequencing errors
Method in brief: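 Using colony PCR, genes from sorted yeast display clones were amplified, then sequenced on MiSeq at 2 × 250 and filtered by CDR length. The clones had been stained with 10% biotinylated, detergent-solubilized Sf9 membrane reagent for 1 hour at 4 °C and sorted by FACS into low and high (top ~1%) gates on anti-HA and streptavidin fluorescence. Polyreactivity labels come from the gate of origin.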

Which “polyreactivity (PSR sort gate)” value does the source give for “QVQLVESGGGLVQAGGSLRLSCAASGSTFVINAMGWYRQAPGKERELVAAISFSGDTTYYADSVKGRFTISRDNAKNTVYLQMNSLKPEDTAVYYCAASVTVGISKYGYWGQGTQVTVSS” here?
The value was “high polyreactivity”.

With “QVQLVESGGGLVQAGGSLRLSCAASGGLFYYNAMGWYRQAPGKERELVAAISGSGGTTYYADSVKGRFTISRDNAKNTVYLQMNSLKPEDTAVYYCAKRPYTVIAYSRYGYWGQGTQVTVSS” as the sequence, how does the “polyreactivity (PSR sort gate)” value read?
The value was “high polyreactivity”.

Which “polyreactivity (PSR sort gate)” value does the source give for “QVQLVESGGGLVQAGGSLRLSCAASGRTFGLYDMGWYRQAPGKERELVAGITRRGGRTYYADSVKGRFTISRDNAKNTVYLQMNSLKPEDTAVYYCAVVTRYRYDYWGQGTQVTVSS” here?
The value was “high polyreactivity”.

With “QVQLVESGGGLVQAGGSLRLSCAASGRISKYNAMGWYRQAPGKERELVAAINQRGTSTYYADSVKGRFTISRDNEMNTVYLQMNSLKPEDTAVYYCATTGYRFYLMDYWGQGTQVTVSS” as the sequence, how does the “polyreactivity (PSR sort gate)” value read?
The value was “low polyreactivity”.

With “QVQLVESGGGLVQAGGSLRLRCAASGSIFSNNAMGWYRPAPGKERELVAAITRSGGNTYYADSVKGRFTISRDNAKNTVYLQMNSLKPEDTAVYYCNAVHLRKMYYWGQGTQVTVSS” as the sequence, how does the “polyreactivity (PSR sort gate)” value read?
The value was “high polyreactivity”.

Which “polyreactivity (PSR sort gate)” value does the source give for “QVQLVESGGGLVQAGGSLRLSCAASGNIFARYAMGWYRQAPGKERELVAAISRSGGSTYYADSVKGRFTISRDNAKNTVYLQMNSLKPEDTAVYYCNAKSYGVLYWFAYDYWGQGTQVTVSS” here?
Its value is “high polyreactivity”.

For “QVQLVESGGGLVQAGGSLRLSCAASGSIFYRNAMGWYRQAPGKERELVAAISGRGGSTYYADSVKGRFTISRDYAKNTVYLQMYSLKPEDTAVYYCAKDHYRERKYDYWGQGTQVTVSS”, which “polyreactivity (PSR sort gate)” value is on record?
Its value is “low polyreactivity”.

For “QVQLVESGGGLVQAGGSLRLSCPASGRTFDYNAMGWYRQAPGKERELVAAITSSGGSTYYADSVKGRFTISRDNAKNTVYLQMNSLKPEDSAVYYCATDGQSPYYIYYWGQGTQVTVSS”, which “polyreactivity (PSR sort gate)” value is on record?
Its value is “low polyreactivity”.

For “QVQHVESGGGLVQAGGSLRLSCAASGFTFFGDYAMGWYRQAPGKERELVAGISVSGGSTYYADSVKGRFTISRDNAKNSVYLQMNSLKPEDTGVYYCAARYSLKGGRYVYWGQGTQVTVSS”, which “polyreactivity (PSR sort gate)” value is on record?
The value was “high polyreactivity”.

Which “polyreactivity (PSR sort gate)” value does the source give for “QVQLVESGGGLAQAGGSLRLSCAASGRIIYFNAMGWYRQAPGKEREFVAAISSSGNTYYADSVKGRFTISLDNAKNTVYLQMNSLKPEDTEVYYCDAAIYSYYPASGYKRYDYWGQGTQVTVSS” here?
The value was “high polyreactivity”.

With “QVQLVESGGGLVQAGGSLRLSCAASGRIFYYNAMGGYTQAPGKERELVAAIDWSGGSTYYADSVKGRITISRANAKNTVYLQMNSLKPEDTAVYYCNAPFRYVPPEGSGPYDYWGQGTQVTVSS” as the sequence, how does the “polyreactivity (PSR sort gate)” value read?
The value was “low polyreactivity”.

For “QVQLVESGGGLVQAGGSLRLSCAASGLIFRWYAMGWYRTAPGKERELVAAISRRGGTTNYADSVKGRFTISRDNAKNTVYLQMNSLKPDDTAVYYCAADYQSVGGAEYDYWGQGTQVTVSS”, which “polyreactivity (PSR sort gate)” value is on record?
The value was “high polyreactivity”.

With “QVQLVESGGGLVQAGGSLRLICAASGRIFHGNAMGWYRQAPGKERELVAAISRRGGSTYYADSVKGRFTISRDNAKNTVYLQMNSLKPEDTAVYYCASVYYNGIRYGYWGQGTQVTVSS” as the sequence, how does the “polyreactivity (PSR sort gate)” value read?
The value was “high polyreactivity”.

Which “polyreactivity (PSR sort gate)” value does the source give for “QVQLVESGGGLVQAGGSLRLSCAASGLTLDYYARGWYRQAPGKDRELVAVIRGRSGSTYYADSVKGRFTISRDNAKNTVYLQMNSLKPEDTAVYYCARVTTYGDYYWGQGTQVTVSS” here?
The value was “high polyreactivity”.

Which “polyreactivity (PSR sort gate)” value does the source give for “QVQLVESGGGLVQAGGSLRLSCAASGIIFAQYTMGWYRQAPGKERELVAAINRNGGSTYYADSVKGRFTISRDNAKNSVYLQMNSLKPEDTAVYYCNADALGFRYDYWGQGTQVTVSS” here?
Its value is “low polyreactivity”.

Which “polyreactivity (PSR sort gate)” value does the source give for “QVQLVESGGGLVQAGGSLRLSCAASGSTFIGNAMGRYRQAPGKERELVAAITRSGGSTFYADSVKGRFTISRDYAKNTVYLQMNSLKPEDTAVYYCAARTRRGLARYDYWGQGTQVTVSS” here?
The value was “high polyreactivity”.

Which “polyreactivity (PSR sort gate)” value does the source give for “QVQLVESGGGLVQAGGSLRLSCAASGRIFAYYAMGWYRQAPGKDRELVATIRSGGDTNYADSVKGRFTISRDNAKNTVDIQMNSLKTEDTAVYYCNALYYWWYPHEYNYWGQGTQVTVSS” here?
The value was “low polyreactivity”.

For “QFQLVESGGGLVQAGGSLRLSFAPSGSTFSYYAMGWYRPAPGKERELVAAISSRGGSTYYADSVKGRFTISRYNAKNTFYFQMNCLKAEDTDVYYSAAVLRGPDPTSTYYSWGQGTQVTVSS”, which “polyreactivity (PSR sort gate)” value is on record?
The value was “high polyreactivity”.

For “QVQLVESGGGLVQAGGSLRLSCAASGIIFRTYAMGWYRQAPGKEREFVAAISWSGGRTYYADSVKGRFTISRDNAKNTVYLQMNSLKPEDTAVYYCAALRSSQSKGDYWGQGTQVTVSS”, which “polyreactivity (PSR sort gate)” value is on record?
The value was “high polyreactivity”.

For “QVQLVESGGALVQAGGSLRLSCAASGITFWKYTMGWYRQAPGKERELVASIRIGGSTYYADSVKGRFTISRDNAKNTVYLQMNSLKPEDTAVYYCATDSRLWGQGTQVTVSS”, which “polyreactivity (PSR sort gate)” value is on record?
The value was “high polyreactivity”.

With “QVQLVESGGGLVQAGGSLRLSCAASGFTFYRYAMGWYRKAPGKERELVAAISSSGGTTYYADSVKVRFTISRDHAKNTVYLQMNRLKPEDTAVYYCAARGWPNWGWGYDYWGQGTQVTVSS” as the sequence, how does the “polyreactivity (PSR sort gate)” value read?
Its value is “high polyreactivity”.

With “QVQLVESGGGLVQAGGSLRLSCAASGSTFRYYAMGWYRQAPGKERELVAAITKNGGSTYYADSVKGRFTISRDNAKNTVYLQMNSLKPEDTAVYYCADQYSYSGWYYVSYYYWGQGTQVTVSS” as the sequence, how does the “polyreactivity (PSR sort gate)” value read?
The value was “high polyreactivity”.

For “QVQLVESGGGLVQAGGRLRVSCATSGRTFGKYAMGWYRQAPGKERELVATISRSGGSTYYADSVKGRFTISRDNAKNTVYLQMNSLNPVDNAVYYCNAVTSRYIWPPGLDRYHYWGQGTQVTVSS”, which “polyreactivity (PSR sort gate)” value is on record?
The value was “high polyreactivity”.

For “QVQLVESGGGLVQAGGSLRLSCAASGYTFYYNTMGWYRQAPGKERELVARINSAGRTNYADSVKGRFTISRDNAKNTVYLQMNSLKPKDTAVYYCAADGPANPDELKVNDFDYWGQGTQVTVSS”, which “polyreactivity (PSR sort gate)” value is on record?
Its value is “high polyreactivity”.

Which “polyreactivity (PSR sort gate)” value does the source give for “QVQLEESGGGLVQAGGRHRLSCAASGNIFTSYTMGWYRQAPGKERELVAAISGGGGSTYYADSVKGRFTISRDNAKNTVYLQMNSLKPEDTAVYYCNAGRWWRRGYGYWGQGTQVTVSS” here?
Its value is “high polyreactivity”.

Which “polyreactivity (PSR sort gate)” value does the source give for “QVQHVESGGGLVQAGGSLRLSCAASGSTFYINAKGWYRQAPGKEREFVASISWRGGSTYADSVKGRFTISRDNAKNTVYLQMNSLKPEDTAVYFCAAEFDVYSHHWITSYDYWGQGTQVTVSS” here?
The value was “high polyreactivity”.

For “QVQLEESGGGLVQAGGSLRLSCAASGSTYPSNAMGWYRQATGKERELVATITTGGSTYYADSVKGRFTISRDNAKNTVYLQMNSLKPEDTAVYYCNAEYVYLIFSVYLYDYDYWGLGTQVTVSS”, which “polyreactivity (PSR sort gate)” value is on record?
The value was “low polyreactivity”.

With “QGQLVESGGGLVQAGCSLRLSCAASGSTFSYYAMGWYRQAPGKETELVAAIRKSGGSTYYADSVKGRFTISRDNAKNTVYLQMNSLKPEDTAVNSCVAVFSYYGWYSRYDYWGQGTQVTVSS” as the sequence, how does the “polyreactivity (PSR sort gate)” value read?
Its value is “low polyreactivity”.

For “QVQHVESGGGLVQAGGSLRLSCAASGGIFVANAMGWYRQAPGKERELVAAISRSGGSTYYADSVKGRFTISRDNAKNTVYLQMNSLKPEDTAVYYCAAKSRRQYTVGLTSDYWGQGTQVTVSS”, which “polyreactivity (PSR sort gate)” value is on record?
The value was “low polyreactivity”.

Which “polyreactivity (PSR sort gate)” value does the source give for “QVQLVESGGGLVQAGGSLRLSCAASGSIFDVNTMGWYRQAPGKERELVAAITNGDRTNYADSVKGRFTISRDNAKNTVYLQMNSLKPEDTAVYYCAADSVLDRPVLYLWPWYLGDYWGQGTQVTVSS” here?
Its value is “low polyreactivity”.

Which “polyreactivity (PSR sort gate)” value does the source give for “QVQLVESGGGLVQAGGSLRLSCAASGRIFSSNAMGWYRQAPGKEREFVAAISWRTGSTYYADSVKGRFTISRDNAKNTVYLQMNSLKPEDTAVYYCNKRTGSYGYPYYYWGQGTQVTVSS” here?
Its value is “high polyreactivity”.

For “QFQLVESGGGLVQAGGSLRLSCAASGSTFYTNAMGWYRQAPGKERELVAAITSRTGSTYYADSVKGRFTISRDNAKNTVYLQMNSLKPEDTAVYYCAADIYDWGGHYEYWGQGTQVTVSS”, which “polyreactivity (PSR sort gate)” value is on record?
The value was “high polyreactivity”.
